Source: the domain aggregation screens of Martell et al. (2025)

Assay: soluble fraction after stress (log2 fold change); higher = more stays soluble; pooled small domains, quantitative proteomics
Conditions: stress: 50 degC
Summary of the method: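 Quantitative proteomics served as the high-throughput read-out for pooled custom libraries of small protein domains. Each was stressed at 50°C. Aggregation propensity is expressed as the base-two log fold change in soluble protein after stress. A higher value means a larger share of the protein remains in solution.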

Row | Sequence | soluble fraction (log2)
1 | HMFKDVTVPSVINKTEAEATNMLKGLNLVVSVEYEENANKSDGIVTAQNVNANKVIKEGETVTITVNKQP | 0.00765
2 | HMEQSGDELKTWVDQAIAAYPEKVKEYQQGKKGLLALFIGEVMKRSKGTADPKKVNQLVTEALS | 0.045
3 | HMNPFTHEEINLMSIYNAAGTREGLIAALTEMWGYLDAEETELRELADSALAKLRGITDAEYAALELE | -0.633
4 | HMNLTSSDIQKILSYALLADNSITLNSIEESMASLKLKKMSAEQLIELLEVSSMVLRNTNNSWSIL | -1.95
5 | HMQSVSANSVQKQLADIIDGEDKTHPLSDRELTEKLVAQGVQISRRTVAKYREAMGIPGASGRKQ | 0.072
6 | HMTVSADQTTADAVIKLIDAIGTVSKNSGSAISAARSGYDALTDAQKKLVTNYNKLTQAEQVFSSLS | 0.129
7 | HMSAPGYRAVYPGMLESERQTAYELLSSSGFDVKINTSSGELEVTTDRYHEARMVMASQNIPK | 0.0432
8 | HMEVLTEPKVQSIDTHGEKSTFVIESPNPLQPDEIAKLVGADGISVRVDRTWLKSHRDSTWTYSILTVS | -0.00748
9 | HMREPDPELTASIKSMAESNDQSERLVALAQLSEQRAVDPEVADQILLIALLDEDPIIRGQAVYA | 0.264
10 | HMLTIEEYLTQLKKLMKDRDAATVRDALSDAEEHLRNAMAGEDPSRLDGIIEEYGSPEEIAAAYKIMEEHT | 0.0389
11 | HMHNSQTIIDNIKRIANEQNISLSKLAVISGLGKNTITSMTAKTNIKIETLTAIAKSLNVSIHDLTGE | -0.0839
12 | HMDATIGGFKITDSAIYSGVKNNVNAGVRGTYIDKDGQIAFGDSNSYLKYYKDTDGKWKLEVSASSVKF | 0.139
13 | HMVVLPGEVLRINVIQEGKEHGQGVGYMDDGTMVVIENGREFIGEYMEVNVTKVLQTAAGRMIFGRVD | -0.526
14 | HMTRVDALDQLAAIRFSSHIFAEDQDLRMVVVDGQRIGEGDIVRDEIRLEQITETGVIFEYQGERFPIDV | -1.42
15 | HMKVNQFEVEGNQRYSTEEIAKASGVSKGDNLFLVNKTETARKLLDELAYVRSVNIKRKLPDTLVITVAE | 0.399
16 | HMSSRLEIEITSKIDDLSHTWRAVGAKQPKGNIKSSLLPSGVKVGETFRVEADFLLDGIEIVSVLPP | -1.44
17 | HMAEKNALWEEDAVYAADSSALARDGYDAIVRTDKGGKKGYLVVGTGGRERFMPLQTLVMLGYLKK | -0.065
18 | HMLLSEPSVLKFNDDNSYEIVSGFLTEYKDKIVKIERRYKKATVKITVAGEEKEIKVSFVEDTE | -0.161
19 | HMRSTIYEFTVPPGQLESIRLDVYITSFVENATRSKVQEAIKQGYVWVNGKHEKASYTMLPGDKIYIELPI | -1.79
20 | HMGGNKILTWKTDAATTRNQVPINERKEGLEISYKNEERNWVAEKYVGTSFSDDKWGVDYNWNQD | 0.421
21 | HMKEGGGYGQLRLKEAAIQHAFDLQNALQFIAERGYQAHENTTLKEAANALNLKPIELLELLKSSQ | 0.281
22 | HMHHIDYKQLRRINPVAARRAVLDYLESTGGNITKTAQVFSINRSVVYDILKKQASGDLSDRLRIP | -1.32
23 | HMAKNYYEILGLKSDATLPEIKKAFKKLSKKFHPDKNRDDDGYFESMFKSINEAYQVLIDEDKRATFDSHH | -0.59
24 | HMSPKYLELVRWINTQIQEKKLTAGQKMYSENELKEMFGVSRQTVRHAISVLEGEGMIRRVRGSGTYINDN | -1.83
25 | HMKNTIPVPHIIGLSEQEARETLERAGLQLNVIKTEPNTKYESGQVTDTNPNEGIKVPKGTIVNVVLADS | -0.00961

Row | Sequence | soluble fraction (log2)
26 | HMVSSYTMAIQINGKLRATHDFSVDTSQEDIKKIIINLPAIQKYINGVEIKKFIIVPQKIVNIV | -2.52
27 | HMKTPETSEYVVQAGDSLRRILTERYGAKEQDLPYLYRQFRLLNPKVSSLDNIHAGTKVRIPLVASVL | 0.132
28 | HMAYVDWYENKQPTHEEAFKKLLGRIHPGAIVLLHSTSKTNGEILDELLTKWEEMGYRFGTLDELTGN | -1.18
29 | HMDFVKGDTVVFIDAFMPDHLMTIHKVQGEGILLDGNHKFALAHLIRHASTVELNAKRRLSLTEQS | -2.05
30 | HMISLPSYIREEATEVYNRLHDLGLEYTSLDVNDDSIPKGYVVRTVPEAGASVPAGQVVTVYVSLG | -0.446
31 | HMGIVAPGTLKHLHAVGNSYYPDWETKRHELVTAVTKGRTSSSKELYEAEANRLITRIEELLMTAAQSV | -0.0132
32 | HMPELTERELEVLLLTARGLPSSEAARLLFITRRTVAAHLTSIYGKLGARNKTEAVLAALKRGIIMLDQIG | -4
33 | HMKDLDSLSQEAKSVYAVFSDKPIHIDDIKRKTGLDFSKLFKAVTELELAELISSGEGKMYSL | -0.0108
34 | HMGIRAFDPEAFDERLKEFFSMIAPYKKLDTRSLQPHFPHHAKEVAERIRQLAEAGKIKVDGFYISEL | -0.108
35 | HMQQIQILPDGKIKLPDLSGTNMREAIEILHKGGLRMKPYGSGNAYQQKPAAGETVASGTTVEVLSL | 0.0457
36 | HMHSRLEDIPGIGPRRRAMLLRHFGGLAELKAAGVEEIARVEGINMALAQRLWRALHGVPDPT | -0.339
37 | HMELLSVPSRLGTFFLGGEAGHIIRLYLPGDPTPRIAEHETPVLSEARRQLLEYLAGRRTAFSFPL | -0.139
38 | HMDPSHGESRENLDIMRIIDETHLEYPSWGYRKMTDHLRANHGYTINRKRVRRLMRLMDIIALFPG | -1.47
39 | HMNDLDSLWDIWENLNERGIGDKSEEGQELRDAIREFIDTNELNVRVTRNKTNEDLLTDIEDALEVAKNS | -0.33
40 | HMKTGNPYAQRNTADMYNYGRGIEKDSYLAFVWYFAAYKQGNDNAKPQIDSITASGHLSPNQQLHAKIE | -0.464
41 | HMQVSDTNTLEQFAKEVIEANPKAVEDYHQNPLAIGFLVGQLMKVSKGSANPQTGKEILEKLL | 0.178
42 | HMVNYKEILRLSAEGNSQRQIAAGSGNSRNTVIEVLEAARARGITWPLDEPVTNEQLEAILFPNRY | 0.134
43 | HMNNKVAVKSGYYFEIFNKEEIPTTLAKTKQKVKINNIQYDLYQGMSLDDERKIDDMFGDRMGYSIDDY | -1.04
44 | HMSFNNHYEILQVQPSADREVIEAAAKALLKKHHPDLGGRNTITSHIVQAKKVLTDTSQRADFDARLRERL | -0.0959
45 | HMTNVLSEQESKLLERMNKAGLNAEITVKKAAQILNLSESAARNVLNRLVGKGYLTVDTSRLPFLFQR | -0.0793
46 | HMRGLFTVYMVGEKASRVGELDEEMVYESRIGDVFALGATSWRIEEITHDRVLVSPAYGQPGRLPFWH | -2.14
47 | HMDGEINPYTGREYVTNSVRMHPRRIGYVQVYSRKDHKWTDMTEWAFLGEQERKKVLLGKAYEPPVYL | -1.55
48 | HMYQKERDKEISEIETFLKKITNANGTRAYSDESIADMSYVELLNLYEGITSKLTEEEIENI | 0.131
49 | HMNQEFRMPNAIKGVELSEENKQQLTQGEKVFLEGMTSAKGSLFDAYVYIDQEKKTLAFDFPEK | 0.184
50 | HMNSTVKVPNVVGMSVPQAKALLEQNHLLVQGIREVSTDKAPAGIVINQLPYSDAEVKEERHIYLTVSKGK | ≥ 0.62

Row | Sequence | soluble fraction (log2)
51 | HMFTLDIGTIIRNRRLELNLTLEEIGNAVGVSKSTVQKWENGFISNMKRDKISALAKVLNINPVTLITGEY | -1.12
52 | HMRNLYEILGVSKDAPQGEIKSAYRKLAKTYHPDLNPNNEKAAELFKEINQAYEVLSDETKRRHYDQFGEA | 0.312
53 | HMDFLKSVDLSKYSKVESLILSHLSKGDFDIDDFIRSFSLGTDEVTRAIVSLEIEGIILRKGNRIFRKKS | -0.0402
54 | HMNREMLVHAIGQLKEKYASALELKYWHGFTEREIAAFLNISEKAANSRLVRGRVMLRKLLE | 0.131
55 | HMELVIGESLAVELLRPGKEDGQALGYLPDGSMVVVNNGRAFVGKRVTAEIIGVIRSAGGKMVFSNLLGE | -2.68
56 | HMQLKFTDLRKEILRMIWEGHGPQKAYDLLNKLQQTNPSAKPATVYRALDFLIGNGFIHKVASLNAFVG | -0.668
57 | HMADTPQAYIRQMVQEAGADGIMLSTITDRLRARFKDFKVRDLGYAQMRQYMASTGTYDLEKSGRNFRVHL | -0.935
58 | HMSTVTEVHYIAFKNGRIVDIKAALTGSAVTATSIKEQPKIENYNYTTSEVRDGILYHTYAPVA | -1.32
59 | HMKQPVPDEIYFKRLANATEALGRYPRASERKKFGLNMSKRRYPTLTDFINKAIELGYVEDFR | -0.373
60 | HMTFVHTQIEATKEWIISHPLDKHPAVAVVDSAGSIVIGEVDYISKSIVRLRFTAEFSGKAYL | -0.598
61 | HMKVQEMTANSFLTQWEAGNVKTLDILPEGIIKGELNDGTKFQLYYSSAAGLIDDVKKNPEKFANTTVSEK | 0.129
62 | HMAEVDDESIKLYDGGYQSNTTKSRLNALLSEFGYDTEHVFQKQFEWFISIFDLTEKAMRTVPFSNGMRL | -0.0834
63 | HMSDYKSYLQELVQTDKKSLSYNVVKETGPAHDKTFEVEVEVDGIIYAHGVGKSKKEAEQNAAKNAIMISA | 0.149
64 | HMFVTFFHELKSAGVPVSLREYLTLMEAMDRDLASRRVEEFYYLARTALVKDERNLDKFDRVFGHVFKGL | -3.65
65 | HMATPEINNLGRLRNAINQSNVNWHQIIKRLQNEYPNNWRQILIAIDRHDLLFRYDVENYIKYG | -1.56
66 | HMYNIDSFMTKNYPTMERFTLSDVQKKYKTTFGLFVKQDELASMIEKTGRFNITSSKNVKYVNR | -1.77
67 | HMDLSQTVQAKALARVNVREGAGTHFKSLGKLKKGELLPVFRVGNSWASIWWKGRVAYVHTDYLRFESA | -0.847
68 | HMSDRFLDQEGVALSTLRPSGTVVLDSGEHLDVVTRGEFIEQGERVKVIKAESTWYVVEQIN | -0.268
69 | HMDDPISSMVNRIRLAFGLSVTDLAAVLGVERPTIYSWLKDGSTPAPARLTRVRQVLSLADTW | -0.194
70 | HMNADTVIGKAGTVIEKIDNVAATGAVKIDGKVWTARSERDNITIDEGTLVKAMAIEGVKLIVEPVT | 0.198
71 | HMDIMLLLYKNIKKRRLEIGMSQEELAQKTGYTSRSSIAKIEKGEVDLQLSKIKLFANALRVSQSELMG | -3.39
72 | HMNEKAALIFNEWSDFVSKDDEANAQIKFDELITLYKKTGYTKIALLEVATKQASNGDIEGALAKYSLLID | 0.208
73 | HMIMVAGHLQIKKGKYYMVLELKSESGERKTKWISTGLSAKGNKRKAEAMLEEARENYQSTDA | -0.899
74 | HMEPVFSDPARQTLYQEVMELPAKYRVPLYLYYYEGYKVDEVGELLGLNASTVQTRLARARAKLKIQL | -0.627
75 | HMVAGHLQEKNGQFYAVLSYKDTKGKRRTKWVPTGLMVRGNKKRAEAMLNDIRRKFVPPEQED | 0.0995
